Assay: protease stability score; higher = more stable; yeast display proteolysis, trypsin and chymotrypsin;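 note: relative to predicted unfolded state with 0 unfolded-like and 1 meaning tenfold more protease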

Sequence	protease stability score
SEDEEDFERAIKLYETLNATGNEEEYSKMVDPHVKMHFNGVDFHGREKMVEVVHKLGVKHLETKSIRIIGDFLRSRFENDVDGRKIEQEVQMLKINGRWLIKYISFH	0.706
SEDEEDFERAMKLLMHDIRTGNEESLNRLFDPNVKININGKELWGREKWIEFLERVDHLDVHDMKIRHLDIQGEKVRAEVHIDRRIKIGDKETRVKVDIRMIAVKVNGRWLLREISVE	2.1
SEDEEDLKRIVELLVRALKTGDEDLIRHLADPHVRLEVGDKEHHGREEYTRWAENFVERIDHVNIHIKRMTTIGNYLQMDVRLEERFDGRRVELRHYLIILKVDGRWVIKEVQIE	1.25
SEDEEDLRRIFELLMELWLTGDERHMEHLIDPNAKLHYDGVEYHGREDARRLIHRFDVFEDARVRRVRLIDGQVRMDTHFIGRVDGRRIQVDSIIFMRKINGRWVSKEEVYV	1.34
SEDEEDMKKASETISEEYHTGDEDAHKKLMDPNARMLYGDKDTHGREHWEHVIKRFGFDHVIIKRIEIHVYDGRIDLHMDVRLIVNGQNLEVRLIIIVRKINGRWRIESVNIHIE	0.061
SEDEEDMTHAIEEIEHFWMTGDWKKMHDLADPHVKTIINGREQHGRRHMIEAIKDSRRRLGVNYIHSVSNKHFDLQGNKVHSDIRIDVDVNGKHIDLELEVDIVKVDGKWQLSHLKIV	0.931
SEDEEDSKEAFRLVEEILITGNEEEIDDMADPHTRVQIGNKIWHGRELFLDWVREHLRRADVVRDVHLTHESAYDGKVELHMKVVIHYGDKTIDTEMVFVSRKIDGKWITHSITMV	1.18
SEDEEDVEQWVRIWFDLLLTGDEDSLRKLIDPHARVEVNGVIQIGREEVARFLSQMRVHDSTLRDIKIYDGRVEIDNEEDVEFNGQRKRVKVILISNKFDGRWTNEHEKYE	0.449
SEDEEEAERFLRMFFELIRTGDERTIERLLDPHVRIDIDGRDIHGRERAQEHVQHWYRHIRIEDDQIKEFHIQGNKVEHHGRRRGSFNGVTYEVTVHETVLKVDGVWYMKEVHVR	0.891
SEDEEEAHEFLKRLDNAHRTGDEDFVYEQMDPDVRIDINGREWHGRELAREYLSIYGIKVMEVKRVNVYDGRINVDGHVEFNGVRNKTTIIMQKIDGRWRVKSITIK	1.41
SEDEEEAKRSIELEMRSWRTGDEDAWLRLADPDVKFVIDGREFHGREALEFLQNRFDHIEMREHEVRHVDLQGDKIHMDTRLRMILIYNGVEIEKETRTEIVVKKIDGRWILHQVEYR	0.724
SEDEEEATHLSRVLIELLKTGDEEMLEHLADPNDRNDFNGRVKHGRELVTKMLRKLMTDLGIDHIEHVTLRRLEVQGEWVKFNFEIIGRVNGRELSFRVRFIMEKVDGKWRLSERHTI	1.71
SEDEEEERRVEKLWSKALHTGDEEELHRLADPNVLLNFDGVEYIGREEFLKHFRRLVHEARIEFIILKDSKLIDGRLHIHGIDLVTQGDKRIELKSEVIVLKINGRWIIHHIHIH	0.75
SEDEEEFRRWLEEMVRALITGDEDRLKELFDPHAQVHVNGKERHGRDELVKAFRETLEDFGVKHMRVTSSSVQGDYVIIHIEMHVDGKPIQTDIRVIIVNGKVHKFEVQLH	1.89
SEDEEEHKEMLRILIHDNRTGDEDSFRDMFDPNVRFEQGEWSAHGRDWAEHVMRRADHVKLDLQTMDTQGDKVILHGRLILLQGEKRIDEKVIFIIRKIDGKWILESVHFH	1.21
SEDEEEIKKAVEILLKELRTGDEDSFEKNLDPNARVHDENHRSHGREEVTKWFYEFRKKFKNARHTFEHIIVVGDKVINHMRVEIDGVTINSLWFIKKVDGRWVITSIHIN	2.26
SEDEEEIKTTFENLDRSIRTGDEDHVRKLADPTMRLDWNGQEFHGREWFSKHLSEFVKRADHFEIRLHDLDMVNGKLHIDGQLILIINGRTQILKLHLVFIKVDGRWILDNVQVN	1.04
SEDEEEISEFTRMHLEDIITGDEDTLRRLVDPNVRIFIDGKHIHGMETYVKRLDENFKHLGVDHVEIRIHQIRLINGRARVDGVLIIEIGDKREERRTFLILLKVNGRWVMEEYRIH	1.07
SEDEEEKHKFAEIFWHAHLTGDFDTLKRLVDPNVRIRIGDKDLHGREHLLEELRKIKNLTIEERHVDIQGEWMRMEVVHYVNGVHIDTTIHIDVVNGRIRRIVFNIV	2.47
SEDEEELERELRLWLSLVLTGDEDIIRELADPHARSRVNGQKSHGRENLLQLFREHMEIMGAKVVDIEEYHIQGEKIILIMRVHVGDKEYELRIEIHVFNGRLKEVNLHFK	1.52
SEDEEELNRVLKELLHAMVTGNEELWSRLVDPNYRVTVGDFRLHGMEEYSRILHEWRVEIREFRITSRTTVDGRIFIDAHFTEEIKQGDKVTFVNTRIRLIMIKVDGRWHVESREIR	0.484
SEDEEESEFAVRELSKIIKTGDPDRFHHLADPNMRFIYGDKREHGMESWVSHLHRLGIENVEVHIHDWSVFNGQVVIDGRINVNGREVNAEFVMRKIDGRWHITEVRER	0.611
SEDEEESEKFLRRLLQAYRTGDEDKLNELIDPNARMDVNGVDNHGWEEISRLLKELRVKHLILHDQKNYDGRAEMDTIVDGRFNGRDDRRKSIIIVIKIDGRWIIESLSIG	1.1
SEDEEESRHAYQKLVRDLETGDEKKTEDNVDPNVRLEQGDKTLHGRERFVHWYSRLGAKHFHIHSFEAQGDKIHIDGTINVNGVTHRVEYISLKVNGRWLMHQVIIR	0.662
SEDEEETRESLELLMRSLKTGDEHQIRRMFDPDALTVIDGREFHGRERATHAMREWKREIRIKEIRIRDWKTQGEKVHLDIEVVTEVNGVEDRREVKLLLIKVNGRWFIHSIHIH	1.43

Sequence	protease stability score
SEDEEEVKHMVDEWWKQVLTGDEESLMRLIDPHAKLDFENVTYHGRDELSRYLTKLLREIRFRDIKIHDVRVYDGKVDLHTHMNIIVDGRTHILDTRMIIVKINGRWYIHQVRIK	2.42
SEDEEEVRKFLKRLLRATETGNEQVLKELFDPNVRIVIGDKHLIGWDFMHTILRRVDVWVVRHIEIKRIDFQGDKLDIDGHVHYEEQIDGQRVSHKRDVKLIMLKVNGVWMFEYIIIH	2.45
SEDEEEWHEATHLLVESLKTGDWKDLSRLADPNAKLHVGEKTVIGRELVSKHLKNRMTELGINHIHIEDRESQGDKIFIISHIHVNGREMKSIFIILKIDGRWILHSMEIREH	0.327
SEDEEFAEKYLKEWVERVRTGDEDHLWKLLDPDPRIRIDGKEIIGREIAVKHMSEIRPTSIRLTSFHSQGDKINVDGETDGEFNGVRQRQRVIYIILKVDGRWLLHSVEFK	1.05
SEDEEFAKHASEIMSRILETGNEEETNRMMDPNVRLDWNGQDHVGREDVLRFRKLIIEILGIERIKVELHDVKTVNGRVHTDIIVNINGQEYRLRVFMTKVNGRWHVKFMEFE	1.7
SEDEEFAKRFFEILVHYHKTGDWEKRMKMADPNTRSDINGVHFHGREDIYRFEDELWREMGIDHVEFHVRDSDIQGDKLHLHTQVIIHVGNKHIELDERMILLKFNGQWVLESLEVK	1.32
SEDEEFARTAVELVSEAWETGDENLEEHLLDPNVKIDIGDKELHGMESSIKYWREIRIHLLHVEIHSVEFFDGRVILDTRFKFDGDFDGKRIERSSTMIWIAHKVDGRWRVHHMENR	1.25
SEDEEFFKKALDLVFEYNRTGDERSMNELADPHVKVDINGVTLHGWEEFSRHLRELRLKTFKLDDLDSQGDKIITKGVFHHHINGRTIDLDVIIFTRKINGRWVLEKVEFK	1.35
SEDEEFLEWTMRLYTKAHATGDEETLTDLMDPNTRLDINGVIWIGREFVRKHHEDLGAKHSRMDLRIRDRDSINGRLIVHTRFRLKIHIGDKDISIEHHTTLYMIKIDGRWHIREIEIR	1.09
SEDEEFMRHKSELYLEMLKTGDEEELERLFDPNVRLHIGDKNQHGREQFSHFFSKLHKELGVDHLSFEHIHLEVVNGRLIIIMRVHLHVGDKVHDREISIDASKVDGQWLVQSVHIHVR	0.121
SEDEEFSKEATETILRVIHTGDWDMIKDLADPNARIHVGNYNSWGREEVMRVIRELFEVLGIKHLIFTHVEIDVIDGVVHSIIHGYEEVGDKTIETHIDIVSKKIDGRWRLQRIEIHHR	1.29
SEDEEHAEFFNRLLAESLMTGDWRTIANLLDPHVRVRVGDKQHHGREQVIHLLTKLLEDWGLERVHIHLRELRVINGRIHTRNELHVGDKTVDVKVHTRKIDGRWVIEEIEFR	1.16
SEDEEHAELALRLWEIVEKTGDETEARKMFDPHTRIIIDGRDLIGWSFIRHLMRRFDHVDIDHKREKRREFQGEKVRMDIEVDMEFVVGEKIYRIDFRVNIVLLKVNGKWRIHSLEIK	2.47
SEDEEHAERMLRILIELLLTGNESDFLRYADPNVRTIVGDKTFHGRDEFRTAWEWFLREIRLRHIELKHVEIQGNKVRVHGIWNIEINGRHIRLHVLIEIVVVDGVLRETRFEIR	1.47
SEDEEHAREFIKILFELLLTGDFKARLERLDPHTRLDVDGKDVHGMENINDLWLRIVEKYKNIQIHFHIHDVSIIGDKIHLHVHVEINVNGVNLRHEELTIVQKFNGKWIIKERHYI	1.38
SEDEEHARKLVEELLHIMITGDFHRIRELADPHARIVVGDKVFHGREMMFRFSRELRVHDHRLRHEEYINGVVHIEGHVDGEINGRRHRTEVRIHIVVIDGRVKTMEIRWD	1.35
SEDEEHARRFRELWLRIFHTGDWHEFHKLLDPNVRTQVGEFHDIGRESAAEHLELFLKQLGVDHTDITHVELIYIGDKVEVNILLRKEQGDKEYTFRIHIVVRKVNGQWLIKSIHITVE	1.54
SEDEEHARRVLEEMIDARLTGDEDKYETLLDPNVRFHQGEWSFHGMEELSRIVHHEARRIDHHEVRLKELRVVNGRVHSRTLLKLDFNGVEYRLKIELIITKVDGRWLLKEVRVR	1.25
SEDEEHDHKLARWILELLHTGDEETFLDLMDPNTRVIIHVGDKRIHNHGREVVKRIQEQLEEDWGVSRVEIHIRRMTIIDGRVRIDGLLEYDGRRHEIHMIFVIINGKIHSEEQHIH	1.46
SEDEEHLKELSEMLIKNWLTGDEKKWDRLADPHAKLRINVNGRDRRRVGMENVHRALHHLFHELRIKHLRDKDSNLINGVSHIEGESTILVGDKEIDTRIVIHLLIIDGRLEEERIVIE	0.178
SEDEEHSRIFVQLFQRAVETGDEDRMLQLMDPDARVHIGDKTYHGMFQFVRWLHDQLKRFKNIRIEWRLTEIDVFENHIIIKGELRLKAEGVDHIHNVIIYVNKINGRWIVHHMEIR	1.52
SEDEEHWRKTINLLIIAIRTGNEDLFWKLLDPNTRFEVDIGDKMIDLHGREKVAEWLHRFIHKIPNLKIHIREIEFNENETRIHGETHFDGKTRTVEIIIELVDGRMKEFIFIVK	2.16
SEDEEIAHHVVNLIMKIIRTGDEDNFKQLFDPHTRFTVGDKHHIGRETVIEFFRRWEEFYPNIQLELRLRDVKAYGDKVHVETEVIIRVGDKDLRFETTVYILKYNGRWFLKQEQFR	0.769
SEDEEIAKEASEVFSDVLLTGNEDLFKEMIDPNVRVIVDGQDHIGRERALEFLIIWLERRGVEFKRVRVTRHRVIDGRVQMHYEVDSVVNGRRTNDSMELHSDKVNGRWIIRIIKFR	2.38
SEDEEIARRYLEFFLHILRTGDFEEMLRLLDPHVRTHVDGREKHGRENVTTFFMRWWEDYGFDHVTLEDFRVHIYGEKIHIKIDGYFHFNGRSVDVKIHVIAKKINGRWLLHEMHFEVR	1.26
